Experimental data published in patent US20230416345A1, “NEW TYPE II COLLAGEN BINDING PROTEINS” (Navigo Proteins GmbH, priority 2020, published 2023).

Assays:
[1] = molecular target: T1, recombinant human collagen type II (h Col II) (Homo sapiens, UniProt P02458); assay: KD-determination by ELISA vs human collagen type II; assay type: binding; conditions: type II collagen; tetramers: of different species
T1 construct: purchased Chondrex CHX-20051
Protocol: (§1) High binding plates (Greiner, 781061) were immobilized with 2.5 μg/ml recombinant human collagen type II (h Col II, Chondrex, CHX-20051), rabbit collagen type II (rbCol II, prepared from rabbit eyes), porcine collagen type II (p Col II, prepared from porcine eyes), human collagen type I, (h Col I, Sigma, C5483-1MG), human collagen type V (h Col V, Abcam, ab7537), human collagen type III (h Col Ill, Abcam, ab7535) and 67B89 (domain of fibronectin, produced in E. coli) respectively over night at 4° C. ELISA-plates were washed 3 times with PBST (PBS+ 0.1% Tween) and blocked with 3% BSA/0.5% Tween/PBS 2 h at RT. After washing with PBST, dilution series of 1.1 μM to 7×10^−4 nM of dimers (CID 211999, CID 212000), dilution series of 100 nM to 7×10^−6 nM of tetramers (CID 212001 and CID 212704) and dilution series of 10 μM to 2 nM of dimer (CID 212705) were incubated on ELISA-plates 1 h at rt. Plates were washed with PBST and incubated with biotinylated anti-StrepTag-ab (Antikörper-online, ABIN1573895) with a dilution of 1:10.000 for 1 h at rt. The binding was visualized with a-rabbit-IgG-HRP (Sigma, A9169) with a dilution of 1:10.000 and as substrate TMB Plus von KEM EN TEC Diagnostic, Kat-Nr. 4395.

[2] = molecular target: T2, human collagen type I (h Col I) (Homo sapiens, UniProt P02452+P08123); assay: ELISA specificity vs human collagen type I; assay type: binding
T2 construct: purchased Sigma C5483-1MG
T2 sequence (P02452 162-1218 limits assumed): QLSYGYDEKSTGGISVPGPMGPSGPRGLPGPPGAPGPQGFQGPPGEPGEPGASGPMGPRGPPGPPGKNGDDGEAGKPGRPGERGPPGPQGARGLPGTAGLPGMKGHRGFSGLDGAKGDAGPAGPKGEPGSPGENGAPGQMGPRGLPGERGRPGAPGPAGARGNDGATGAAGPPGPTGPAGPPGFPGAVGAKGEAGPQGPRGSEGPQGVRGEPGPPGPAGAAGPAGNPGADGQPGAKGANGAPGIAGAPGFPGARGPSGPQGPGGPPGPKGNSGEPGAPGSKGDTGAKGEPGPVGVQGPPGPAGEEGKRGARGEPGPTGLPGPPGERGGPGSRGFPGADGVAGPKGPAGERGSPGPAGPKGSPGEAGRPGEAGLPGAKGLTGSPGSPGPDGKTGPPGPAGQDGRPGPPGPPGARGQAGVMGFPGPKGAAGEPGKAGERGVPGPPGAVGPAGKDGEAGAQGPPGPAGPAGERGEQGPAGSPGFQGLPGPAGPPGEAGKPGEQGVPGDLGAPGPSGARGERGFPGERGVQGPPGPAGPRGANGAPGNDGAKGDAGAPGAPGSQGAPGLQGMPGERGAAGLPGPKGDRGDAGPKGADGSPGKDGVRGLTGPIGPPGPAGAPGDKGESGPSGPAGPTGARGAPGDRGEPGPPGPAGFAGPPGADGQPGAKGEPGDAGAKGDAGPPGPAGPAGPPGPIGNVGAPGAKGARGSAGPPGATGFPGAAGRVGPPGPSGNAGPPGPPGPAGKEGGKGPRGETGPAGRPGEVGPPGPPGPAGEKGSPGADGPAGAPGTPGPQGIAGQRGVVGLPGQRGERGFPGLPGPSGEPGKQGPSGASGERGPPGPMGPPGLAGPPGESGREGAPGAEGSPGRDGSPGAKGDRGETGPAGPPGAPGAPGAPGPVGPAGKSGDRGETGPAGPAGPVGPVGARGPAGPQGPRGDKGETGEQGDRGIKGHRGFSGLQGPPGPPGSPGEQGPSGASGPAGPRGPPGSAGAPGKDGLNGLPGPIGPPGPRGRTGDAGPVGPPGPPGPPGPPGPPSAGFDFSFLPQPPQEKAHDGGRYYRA
T2 sequence (P08123 80-1119 limits assumed): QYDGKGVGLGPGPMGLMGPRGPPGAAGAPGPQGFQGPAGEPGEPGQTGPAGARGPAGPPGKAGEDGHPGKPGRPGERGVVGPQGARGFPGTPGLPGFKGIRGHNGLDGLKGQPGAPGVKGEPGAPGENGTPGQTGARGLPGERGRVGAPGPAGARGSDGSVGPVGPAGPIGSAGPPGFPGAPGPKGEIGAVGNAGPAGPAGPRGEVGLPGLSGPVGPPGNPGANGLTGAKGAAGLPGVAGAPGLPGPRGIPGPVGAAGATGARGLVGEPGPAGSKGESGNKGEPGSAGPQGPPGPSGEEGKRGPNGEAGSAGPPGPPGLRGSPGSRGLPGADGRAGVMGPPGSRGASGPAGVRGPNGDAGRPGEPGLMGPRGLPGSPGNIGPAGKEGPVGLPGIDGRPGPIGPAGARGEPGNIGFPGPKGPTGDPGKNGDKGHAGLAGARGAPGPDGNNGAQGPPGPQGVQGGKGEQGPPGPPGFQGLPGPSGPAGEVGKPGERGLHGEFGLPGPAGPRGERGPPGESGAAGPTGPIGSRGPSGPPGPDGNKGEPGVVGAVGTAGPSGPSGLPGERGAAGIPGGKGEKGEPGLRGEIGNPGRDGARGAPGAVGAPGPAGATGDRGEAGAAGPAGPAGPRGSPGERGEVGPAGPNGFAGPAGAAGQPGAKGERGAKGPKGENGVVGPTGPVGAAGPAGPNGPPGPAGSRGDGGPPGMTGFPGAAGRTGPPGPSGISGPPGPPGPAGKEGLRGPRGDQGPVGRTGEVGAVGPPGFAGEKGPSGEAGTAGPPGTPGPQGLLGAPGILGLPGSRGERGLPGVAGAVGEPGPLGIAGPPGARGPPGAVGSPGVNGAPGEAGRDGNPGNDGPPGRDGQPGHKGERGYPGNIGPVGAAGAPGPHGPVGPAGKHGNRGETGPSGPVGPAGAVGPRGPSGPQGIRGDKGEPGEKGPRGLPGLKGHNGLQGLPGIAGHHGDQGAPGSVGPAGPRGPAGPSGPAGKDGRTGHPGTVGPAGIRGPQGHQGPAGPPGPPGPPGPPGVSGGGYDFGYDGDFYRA
Protocol: as §1

human collagen type III = molecular target: T3, human collagen type III (Homo sapiens, UniProt P02461); assay: ELISA specificity vs human collagen type III; assay type: binding
T3 construct: purchased Abcam ab7535
T3 sequence (P02461 154-1221 limits assumed): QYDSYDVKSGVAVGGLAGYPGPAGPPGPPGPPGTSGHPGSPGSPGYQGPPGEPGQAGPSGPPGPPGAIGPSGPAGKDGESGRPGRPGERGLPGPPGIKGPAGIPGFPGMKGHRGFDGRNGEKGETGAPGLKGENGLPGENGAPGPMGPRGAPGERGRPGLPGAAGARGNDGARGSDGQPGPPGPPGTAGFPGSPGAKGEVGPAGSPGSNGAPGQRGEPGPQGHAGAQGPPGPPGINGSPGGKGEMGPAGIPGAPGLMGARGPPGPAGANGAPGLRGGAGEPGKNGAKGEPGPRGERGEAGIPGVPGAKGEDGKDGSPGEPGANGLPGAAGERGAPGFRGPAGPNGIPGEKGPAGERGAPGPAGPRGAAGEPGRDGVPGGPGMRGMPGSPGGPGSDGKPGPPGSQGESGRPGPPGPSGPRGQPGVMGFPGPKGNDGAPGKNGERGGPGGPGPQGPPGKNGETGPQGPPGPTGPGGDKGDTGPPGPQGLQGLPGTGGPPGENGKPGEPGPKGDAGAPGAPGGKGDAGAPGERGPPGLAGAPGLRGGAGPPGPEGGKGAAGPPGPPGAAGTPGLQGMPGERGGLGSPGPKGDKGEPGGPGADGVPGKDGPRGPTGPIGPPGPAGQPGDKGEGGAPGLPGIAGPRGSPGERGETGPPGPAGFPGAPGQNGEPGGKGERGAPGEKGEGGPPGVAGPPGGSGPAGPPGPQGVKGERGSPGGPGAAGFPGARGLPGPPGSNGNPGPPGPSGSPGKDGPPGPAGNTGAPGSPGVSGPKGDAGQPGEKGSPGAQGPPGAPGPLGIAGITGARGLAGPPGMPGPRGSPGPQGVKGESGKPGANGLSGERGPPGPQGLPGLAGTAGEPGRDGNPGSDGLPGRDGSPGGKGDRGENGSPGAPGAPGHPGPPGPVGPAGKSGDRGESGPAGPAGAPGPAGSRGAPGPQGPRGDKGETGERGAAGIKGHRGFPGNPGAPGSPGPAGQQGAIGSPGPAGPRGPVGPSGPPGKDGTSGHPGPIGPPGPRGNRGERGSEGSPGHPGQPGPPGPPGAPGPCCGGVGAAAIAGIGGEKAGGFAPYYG
Protocol: as §1

[3] = molecular target: T4, 67B89 (domain of fibronectin) (Homo sapiens, UniProt P02751); assay: ELISA specificity vs 67B89; assay type: binding
T4 construct: unrelated fibronectin domain EDB (67B89) could be observed; made in house; host or cells: E. coli
T4 sequence (P02751 1089-1540 limits assumed): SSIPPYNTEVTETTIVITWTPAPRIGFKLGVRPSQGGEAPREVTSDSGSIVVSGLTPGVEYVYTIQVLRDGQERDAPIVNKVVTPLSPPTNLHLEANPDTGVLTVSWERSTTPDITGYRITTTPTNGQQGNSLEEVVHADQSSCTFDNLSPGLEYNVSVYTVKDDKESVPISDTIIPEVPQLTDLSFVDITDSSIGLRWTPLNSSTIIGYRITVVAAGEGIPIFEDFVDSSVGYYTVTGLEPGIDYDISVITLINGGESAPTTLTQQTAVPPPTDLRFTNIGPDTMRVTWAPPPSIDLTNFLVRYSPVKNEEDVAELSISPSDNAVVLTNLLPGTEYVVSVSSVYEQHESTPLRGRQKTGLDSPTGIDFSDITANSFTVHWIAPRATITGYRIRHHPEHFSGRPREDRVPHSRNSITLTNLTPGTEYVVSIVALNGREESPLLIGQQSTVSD
Protocol: as §1

pig eye sections = assay: Immunohistochemistry staining on pig eye sections; conditions: formalin-fixed paraffin-embedded pig eyes; 5 μM or 500 nM protein, 45 min
Protocol: Sections of formalin-fixed paraffin-embedded pig eyes were deparaffinated with xylol and rehydrated with a descending concentration series of ethanol. For antigen retrieval slices were incubated in TE-buffer, pH 9.0 for 5 min. at 110° C. After blocking of endogenous peroxidases with peroxidase blocking solution (Novolink Polymer™ Detection System, Leica, RE7140-K) slices were incubated with 5 μM or 500 nM of CID 211999 (dimer), CID 212000 (dimer), CID 212001 (tetramer) for 45 min at rt. Subsequently binding of proteins was detected with rabbit-anti-StrepTag-antibody (Genscript, A00026) at a dilution of 1:500 and Novolink Polymer™ Detection System. Anti-Collagen Type II antibody (Abcam, #ab34712) at a dilution of 1:10 served as positive control. Tissue slices were incubated with antibodies for 30 min. Washing steps were performed with TBS pH 7.6. For visualization, AEC-staining (Dako, K3461) was used and after washing with water, nuclei were stained with Mayers Hamalum solution (Merck, 1.09249.0500). Results see FIG. 5.

T1 sequence (P02458 182-1241): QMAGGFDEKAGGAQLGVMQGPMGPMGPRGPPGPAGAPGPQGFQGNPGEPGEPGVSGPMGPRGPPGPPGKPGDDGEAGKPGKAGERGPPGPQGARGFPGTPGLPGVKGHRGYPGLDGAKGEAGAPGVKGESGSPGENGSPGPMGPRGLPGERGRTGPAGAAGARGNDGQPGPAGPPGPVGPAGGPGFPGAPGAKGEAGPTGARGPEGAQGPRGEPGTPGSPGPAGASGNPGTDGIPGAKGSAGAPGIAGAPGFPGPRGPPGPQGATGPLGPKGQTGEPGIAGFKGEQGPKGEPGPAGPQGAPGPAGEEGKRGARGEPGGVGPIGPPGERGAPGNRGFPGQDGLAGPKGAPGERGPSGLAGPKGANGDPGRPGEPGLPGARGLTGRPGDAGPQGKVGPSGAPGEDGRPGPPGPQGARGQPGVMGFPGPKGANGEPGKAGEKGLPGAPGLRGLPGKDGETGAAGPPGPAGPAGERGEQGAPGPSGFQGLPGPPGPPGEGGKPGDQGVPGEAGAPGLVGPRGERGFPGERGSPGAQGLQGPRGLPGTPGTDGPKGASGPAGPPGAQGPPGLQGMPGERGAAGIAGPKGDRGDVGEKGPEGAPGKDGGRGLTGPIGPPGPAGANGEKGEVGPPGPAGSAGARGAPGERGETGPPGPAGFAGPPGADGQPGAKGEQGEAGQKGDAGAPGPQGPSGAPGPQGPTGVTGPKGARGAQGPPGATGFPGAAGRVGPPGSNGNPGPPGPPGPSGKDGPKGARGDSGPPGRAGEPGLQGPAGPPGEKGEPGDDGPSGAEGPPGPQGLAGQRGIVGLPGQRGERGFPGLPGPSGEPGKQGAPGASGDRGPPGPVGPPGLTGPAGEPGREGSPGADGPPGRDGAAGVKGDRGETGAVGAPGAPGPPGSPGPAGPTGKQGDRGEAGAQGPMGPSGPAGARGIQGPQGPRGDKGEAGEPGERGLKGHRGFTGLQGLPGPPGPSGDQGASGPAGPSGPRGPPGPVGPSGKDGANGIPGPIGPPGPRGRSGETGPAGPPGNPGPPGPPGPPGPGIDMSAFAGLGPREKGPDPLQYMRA

B1: CID 212000: dimer of SEQ ID NO: 2 (dimer with linker between the monomers) (protein)
chain: IAAKFDEAQSAADSEILHLPNLTEQQRHYFRRWLSDDPSVSTHILTQAQHLNDDQAPKGGGGSGGGGSGGGGSGGGGSIAAKFDEAQSAADSEILHLPNLTEQQRHYFRRWLSDDPSVSTHILTQAQHLNDDQAPKSAWSHPQFEK
modifications: Col2 binding protein (dimer of 211261) (CID212000)
[1]
  binding affinity (KD) to type II collagen by ELISA, in words: 1-2-digit nM
[2]
  binding to type I collagen (ELISA): No unspecific binding
Human collagen type III
  binding to type III collagen (ELISA): No unspecific binding
[3]
  binding to domain of fibronectin (67B89) (ELISA): No unspecific binding
Pig eye sections
  IHC staining of pig eye sections: staining of retina, inner limiting membrane (arrow) and vitreous body of pig eye
